Test results as given in the supplement of paper PMC11246515.
± gives the standard deviation of the averaged measurements.

Test: total protein half-life in vivo (active degradation + dilution); higher = more stable protein
[1] = E. coli NCM3722 delta-clpP delta-lon delta-hslV, growth: N-lim chemostat, doubling time 6 h
[2] = wild type E. coli NCM3722, growth: C-lim chemostat, doubling time 3 h
[3] = wild type E. coli NCM3722, growth: C-lim chemostat, doubling time 12 h
[4] = wild type E. coli NCM3722, growth: P-lim chemostat, doubling time 12 h
[5] = E. coli NCM3722 delta-smpB, growth: N-lim chemostat, doubling time 6 h
[6] = wild type E. coli NCM3722, growth: C-lim chemostat, doubling time 6 h
[7] = E. coli NCM3722 delta-clpP, growth: N-lim chemostat, doubling time 6 h
[8] = E. coli NCM3722 delta-hslV, growth: N-lim chemostat, doubling time 6 h
[9] = E. coli NCM3722 delta-lon, growth: N-lim chemostat, doubling time 6 h
[10] = wild type E. coli NCM3722, growth: N-lim chemostat, doubling time 6 h
[11] = wild type E. coli NCM3722, growth: N-lim chemostat, doubling time 12 h
[12] = wild type E. coli NCM3722, growth: P-lim chemostat, doubling time 6 h

Sequence	total protein half-life in vivo [1] [h]	total protein half-life in vivo [2] [h]	total protein half-life in vivo [3] [h]	total protein half-life in vivo [4] [h]	total protein half-life in vivo [5] [h]	total protein half-life in vivo [6] [h]	total protein half-life in vivo [7] [h]	total protein half-life in vivo [8] [h]	total protein half-life in vivo [9] [h]	total protein half-life in vivo [10] [h]	total protein half-life in vivo [11] [h]	total protein half-life in vivo [12] [h]
MSELIVSRQQRVLLLTLNRPAARNALNNALLMQLVNELEAAATDTSISVCVITGNARFFAAGADLNEMAEKDLAATLNDTRPQLWARLQAFNKPLIAAVNGYALGAGCELALLCDVVVAGENARFGLPEITLGIMPGAGGTQRLIRSVGKSLASKMVLSGESITAQQAQQAGLVSDVFPSDLTLEYALQLASKMARHSPLALQAAKQALRQSQEVALQAGLAQERQLFTLLAATEDRHEGISAFLQKRTPDFKGR	5.63	2.67	6.46	6.46								
MSELKISPELLQISPEVQDALKNKKPVVALESTIISHGMPFPQNAQTAIEVEETIRKQGAVPATIAIIGGVMKVGLSKEEIELLGREGHNVTKVSRRDLPFVVAAGKNGATTVASTMIIAALAGIKVFATGGIGGVHRGAEHTFDISADLQELANTNVTVVCAGAKSILDLGLTTEYLETFGVPLIGYQTKALPAFFCRTSPFDVSIRLDSASEIARAMVVKWQSGLNGGLVVANPIPEQFAMPEHTINAAIDQAVAEAEAQGVIGKESTPFLLARVAELTGGDSLKSNIQLVFNNAILASEIAKEYQRLAG		2.56 ± 0.11	6.33 ± 0.81	4.2	1.52 ± 0.068	4.42 ± 0.53						
MSELLSFALFLASVLIYAWKAGRNTWWFAATLTVLGLFVVLNITLFASDYFTGDGINDAVLYTLTNSLTGAGVSKYILPGIGIVLGLTAVFGALGWILRRRRHHPHHFGYSLLALLLALGSVDASPAFRQITELVKSQSRDGDPDFAAYYKEPSKTIPDPKLNLVYIYGESLERTYFDNEAFPDLTPELGALKNEGLDFSHTQQLPGTDYTIAGMVASQCGIPLFAPFEGNASASVSSFFPQNICLGDILKNSGYQNYFVQGANLRFAGKDVFLKSHGFDHLYGSEELKSVVADPHYRNDWGFYDDTVLDEAWKKFEELSRSGQRFSLFTLTVDTHHPDGFISRTCNRKKYDFDGKPNQSFSAVSCSQENIATFINKIKASPWFKDTVIVVSSDHLAMNNTAWKYLNKQDRNNLFFVIRGDKPQQETLAVKRNTMDNGATVLDILGGDNYLGLGRSSLSGQSMSEIFLNIKEKTLAWKPDIIRLWKFPKEMKEFTIDQQKNMIAFSGSHFRLPLLLRVSDKRVEPLPESEYSAPLRFQLADFAPRDNFVWVDRCYKMAQLWAPELALSTDWCVSQGQLGGQQIVQHVDKTTWQGKTAFKDTVIDMARYKGNVDTLKIVDNDIRYKADSFIFNVAGAPEEVKQFSGISRPESWGRWSNAQLGDEVKIEYKHPLPKKFDLVITAKAYGNNASRPIPVRVGNEEQTLVLGNEVTTTTLHFDNPTDADTLVIVPPEPVSTNEGNILGHSPRKLGIGMVEIKVVEREG	4.02 ± 0.17	2.17 ± 0.05	3.93 ± 0.84		3.47 ± 0.035	2.99 ± 0.12	2.98 ± 0.2	3.42 ± 0.56	4.63 ± 0.46	3.35 ± 0.42	4.45 ± 0.4	
MSEMTPREIVSELDKHIIGQDNAKRSVAIALRNRWRRMQLNEELRHEVTPKNILMIGPTGVGKTEIARRLAKLANAPFIKVEATKFTEVGYVGKEVDSIIRDLTDAAVKMVRVQAIEKNRYRAEELAEERILDVLIPPAKNNWGQTEQQQEPSAARQAFRKKLREGQLDDKEIEIDLAAAPMGVEIMAPPGMEEMTSQLQSMFQNLGGQKQKARKLKIKDAMKLLIEEEAAKLVNPEELKQDAIDAVEQHGIVFIDEIDKICKRGESSGPDVSREGVQRDLLPLVEGCTVSTKHGMVKTDHILFIASGAFQIAKPSDLIPELQGRLPIRVELQALTTSDFERILTEPNASITVQYKALMATEGVNIEFTDSGIKRIAEAAWQVNESTENIGARRLHTVLERLMEEISYDASDLSGQNITIDADYVSKHLDALVADEDLSRFIL [P0A6H5]	5.09 ± 0.28	2.95 ± 0.36	10.3 ± 0.44	10.98 ± 0.036	4.21 ± 0.085	5.94 ± 0.93	5.18 ± 0.56	4.46 ± 0.12	5.23 ± 0.29	4.79 ± 0.11	8.11 ± 0.2	5.29 ± 0.054
MSENSIRLTQYSHGAGCGCKISPKVLETILHSEQAKFVDPNLLVGNETRDDAAVYDLGNGTSVISTTDFFMPIVDNPFDFGRIAATNAISDIFAMGGKPIMAIAILGWPINKLSPEIAREVTEGGRYACRQAGIALAGGHSIDAPEPIFGLAVTGIVPTERVKKNSTAQAGCKLFLTKPLGIGVLTTAEKKSLLKPEHQGLATEVMCRMNIAGASFANIEGVKAMTDVTGFGLLGHLSEMCQGAGVQARVDYEAIPKLPGVEEYIKLGAVPGGTERNFASYGHLMGEMPREVRDLLCDPQTSGGLLLAVMPEAENEVKATAAEFGIELTAIGELVPARGGRAMVEIR	3.58 ± 0.34	3.01 ± 0.23	8.899 ± 0.067	10.1 ± 0.65	2.76 ± 0.077	4.95 ± 0.13	2.94 ± 0.2	2.5242 ± 0.00055	3.85 ± 0.73	2.816 ± 0.0089	3.67 ± 0.27	5.34 ± 0.23
MSEPQRLFFAIDLPAEIREQIIHWRATHFPPEAGRPVAADNLHLTLAFLGEVSAEKEKALSLLAGRIRQPGFTLTLDDAGQWLRSRVVWLGMRQPPRGLIQLANMLRSQAARSGCFQSNRPFHPHITLLRDASEAVTIPPPGFNWSYAVTEFTLYASSFARGRTRYTPLKRWALTQ	5.3 ± 0.55	3.11	11	11.33 ± 0.097	4.66 ± 0.56	6.25 ± 0.27	4.8			5.03 ± 0.89	8.49 ± 0.71	5.55 ± 0.13
